From patent US20030229005A1 (BIOZYME, published 2003)
One block for each binder: values may come before it. *1 amine or outer side, *2 acyl side, *3 side chain or, on linkers, in order; H or OH if unused. [ ]: non-standard residue; d: D form. The star is where a group is joined. Dnp = O=[N+]([O-])c1ccc(*)c([N+](=O)[O-])c1; C(Me) = CSC[C@H](N[*:1])C(=O)[*:2]

Columns and labels:
Experiment in all cases: cell-based or functional assay
gelatinase B = gelatinase B (UniProt P14780 107-707, limits assumed)
collagenase 1 = target: T1, collagenase 1 (UniProt P03956 100-469, limits assumed)
T1 sequence (looked up): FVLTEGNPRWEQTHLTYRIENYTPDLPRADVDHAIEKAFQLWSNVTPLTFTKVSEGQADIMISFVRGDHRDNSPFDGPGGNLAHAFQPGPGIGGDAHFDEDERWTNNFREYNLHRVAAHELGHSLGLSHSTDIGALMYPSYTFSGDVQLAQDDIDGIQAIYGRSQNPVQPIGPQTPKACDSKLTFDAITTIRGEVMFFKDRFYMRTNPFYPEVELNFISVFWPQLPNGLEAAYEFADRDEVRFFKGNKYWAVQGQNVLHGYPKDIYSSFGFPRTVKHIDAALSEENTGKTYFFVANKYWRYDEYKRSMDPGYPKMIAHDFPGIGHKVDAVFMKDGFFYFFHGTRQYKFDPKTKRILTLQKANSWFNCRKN

stromelysin 1 = stromelysin 1 (UniProt P08254 100-477, limits assumed)
human Gelatinase-A = target: T2, human Gelatinase-A (human, UniProt P08253 110-660, limits assumed)
T2 sequence (looked up): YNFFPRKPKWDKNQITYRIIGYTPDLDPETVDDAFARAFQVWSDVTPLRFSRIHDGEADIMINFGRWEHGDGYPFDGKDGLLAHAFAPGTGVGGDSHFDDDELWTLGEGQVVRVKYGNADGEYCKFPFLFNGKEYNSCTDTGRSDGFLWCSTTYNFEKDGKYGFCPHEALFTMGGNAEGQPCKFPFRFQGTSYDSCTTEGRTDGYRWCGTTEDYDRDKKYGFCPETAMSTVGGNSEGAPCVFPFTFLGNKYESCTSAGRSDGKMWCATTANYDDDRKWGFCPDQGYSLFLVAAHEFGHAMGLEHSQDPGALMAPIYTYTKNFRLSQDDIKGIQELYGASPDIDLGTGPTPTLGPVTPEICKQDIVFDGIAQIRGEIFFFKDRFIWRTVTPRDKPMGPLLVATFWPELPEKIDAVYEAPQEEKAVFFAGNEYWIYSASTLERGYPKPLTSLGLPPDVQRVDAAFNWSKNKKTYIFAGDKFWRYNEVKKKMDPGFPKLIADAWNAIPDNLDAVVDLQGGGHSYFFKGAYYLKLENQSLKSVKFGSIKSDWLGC

stromelysin 1, sequence (P08254 100-477 limits assumed): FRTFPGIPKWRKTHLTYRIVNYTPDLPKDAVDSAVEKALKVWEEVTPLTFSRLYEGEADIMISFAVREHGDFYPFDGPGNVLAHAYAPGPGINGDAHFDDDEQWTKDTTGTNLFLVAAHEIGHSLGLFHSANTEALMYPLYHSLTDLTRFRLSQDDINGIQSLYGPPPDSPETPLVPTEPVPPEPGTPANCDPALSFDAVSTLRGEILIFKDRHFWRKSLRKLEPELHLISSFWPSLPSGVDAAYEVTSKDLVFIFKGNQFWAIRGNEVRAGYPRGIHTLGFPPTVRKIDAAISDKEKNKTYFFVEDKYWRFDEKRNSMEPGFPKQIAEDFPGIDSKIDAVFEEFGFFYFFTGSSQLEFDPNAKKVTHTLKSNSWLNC
gelatinase B, sequence (P14780 107-707 limits assumed): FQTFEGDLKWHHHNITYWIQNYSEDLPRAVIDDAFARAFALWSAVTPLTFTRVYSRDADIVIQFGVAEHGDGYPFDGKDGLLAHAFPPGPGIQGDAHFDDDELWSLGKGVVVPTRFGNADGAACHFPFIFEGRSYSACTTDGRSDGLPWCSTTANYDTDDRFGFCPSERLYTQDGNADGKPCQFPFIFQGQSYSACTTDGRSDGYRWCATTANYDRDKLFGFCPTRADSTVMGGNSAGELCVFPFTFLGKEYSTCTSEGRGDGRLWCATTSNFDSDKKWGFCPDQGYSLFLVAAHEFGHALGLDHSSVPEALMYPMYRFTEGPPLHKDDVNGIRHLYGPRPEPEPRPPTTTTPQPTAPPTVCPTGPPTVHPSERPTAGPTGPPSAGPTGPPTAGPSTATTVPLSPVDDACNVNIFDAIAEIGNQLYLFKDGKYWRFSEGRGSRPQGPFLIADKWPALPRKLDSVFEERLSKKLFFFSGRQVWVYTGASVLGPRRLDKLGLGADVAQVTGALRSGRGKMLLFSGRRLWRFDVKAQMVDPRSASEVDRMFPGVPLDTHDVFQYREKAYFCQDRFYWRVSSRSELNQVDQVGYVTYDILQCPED

B3: Dnp-GPAPFRVC(Me)-NH2 (peptide)
peptide: Dnp-GPAPFRV[C(Me)]-NH2
SMILES: CSC[C@H](NC(=O)[C@@H](NC(=O)[C@H](CCCNC(=N)N)NC(=O)[C@H](Cc1ccccc1)NC(=O)[C@@H]1CCCN1C(=O)[C@H](C)NC(=O)[C@@H]1CCCN1C(=O)CNc1ccc([N+](=O)[O-])cc1[N+](=O)[O-])C(C)C)C(N)=O
- Selectivity v. Coll-3 (gelatinase B): 82 unitless
- Selectivity v. Coll-3 (collagenase 1): 5790 unitless
- Selectivity v. Coll-3 (stromelysin 1): 448 unitless
- Selectivity v. Coll-3 (human Gelatinase-A): 37 unitless

B5: Dnp-GPLGLHVC(Me)-NH2 (peptide)
peptide: Dnp-GPLGLHV[C(Me)]-NH2
SMILES: CSC[C@H](NC(=O)[C@@H](NC(=O)[C@H](Cc1c[nH]cn1)NC(=O)[C@H](CC(C)C)NC(=O)CNC(=O)[C@H](CC(C)C)NC(=O)[C@@H]1CCCN1C(=O)CNc1ccc([N+](=O)[O-])cc1[N+](=O)[O-])C(C)C)C(N)=O
- Selectivity v. Coll-3 (gelatinase B): 26 unitless
- Selectivity v. Coll-3 (collagenase 1): 182 unitless
- Selectivity v. Coll-3 (stromelysin 1): 12700 unitless
- Selectivity v. Coll-3 (human Gelatinase-A): 32 unitless

B6: Dnp-GPLPFHVC(Me)-NH2 (peptide)
peptide: Dnp-GPLPFHV[C(Me)]-NH2
SMILES: CSC[C@H](NC(=O)[C@@H](NC(=O)[C@H](Cc1c[nH]cn1)NC(=O)[C@H](Cc1ccccc1)NC(=O)[C@@H]1CCCN1C(=O)[C@H](CC(C)C)NC(=O)[C@@H]1CCCN1C(=O)CNc1ccc([N+](=O)[O-])cc1[N+](=O)[O-])C(C)C)C(N)=O
- Selectivity v. Coll-3 (gelatinase B): 18 unitless
- Selectivity v. Coll-3 (collagenase 1): 2950 unitless
- Selectivity v. Coll-3 (stromelysin 1): 619 unitless
- Selectivity v. Coll-3 (human Gelatinase-A): 20 unitless

B10: Dnp-GPLGFRGC(Me)-NH2 (peptide)
peptide: Dnp-GPLGFRG[C(Me)]-NH2
SMILES: CSC[C@H](NC(=O)CNC(=O)[C@H](CCCNC(=N)N)NC(=O)[C@H](Cc1ccccc1)NC(=O)CNC(=O)[C@H](CC(C)C)NC(=O)[C@@H]1CCCN1C(=O)CNc1ccc([N+](=O)[O-])cc1[N+](=O)[O-])C(N)=O
- Selectivity v. Coll-3 (gelatinase B): 7 unitless
- Selectivity v. Coll-3 (collagenase 1): 10600 unitless
- Selectivity v. Coll-3 (stromelysin 1): 7290 unitless
- Selectivity v. Coll-3 (human Gelatinase-A): 10 unitless

B12: Dnp-GPAPLHGC(Me)-NH2 (peptide)
peptide: Dnp-GPAPLHG[C(Me)]-NH2
SMILES: CSC[C@H](NC(=O)CNC(=O)[C@H](Cc1c[nH]cn1)NC(=O)[C@H](CC(C)C)NC(=O)[C@@H]1CCCN1C(=O)[C@H](C)NC(=O)[C@@H]1CCCN1C(=O)CNc1ccc([N+](=O)[O-])cc1[N+](=O)[O-])C(N)=O
- Selectivity v. Coll-3 (gelatinase B): 10 unitless
- Selectivity v. Coll-3 (collagenase 1): 473 unitless
- Selectivity v. Coll-3 (stromelysin 1): 620 unitless
- Selectivity v. Coll-3 (human Gelatinase-A): 12 unitless

B13: Dnp-GPAPLHVC(Me)-NH2 (peptide)
peptide: Dnp-GPAPLHV[C(Me)]-NH2
SMILES: CSC[C@H](NC(=O)[C@@H](NC(=O)[C@H](Cc1c[nH]cn1)NC(=O)[C@H](CC(C)C)NC(=O)[C@@H]1CCCN1C(=O)[C@H](C)NC(=O)[C@@H]1CCCN1C(=O)CNc1ccc([N+](=O)[O-])cc1[N+](=O)[O-])C(C)C)C(N)=O
- Selectivity v. Coll-3 (gelatinase B): 11 unitless
- Selectivity v. Coll-3 (collagenase 1): 126 unitless
- Selectivity v. Coll-3 (stromelysin 1): 264 unitless
- Selectivity v. Coll-3 (human Gelatinase-A): 12 unitless

B14: Dnp-GPLGLHGC(Me)-NH2 (peptide)
peptide: Dnp-GPLGLHG[C(Me)]-NH2
SMILES: CSC[C@H](NC(=O)CNC(=O)[C@H](Cc1c[nH]cn1)NC(=O)[C@H](CC(C)C)NC(=O)CNC(=O)[C@H](CC(C)C)NC(=O)[C@@H]1CCCN1C(=O)CNc1ccc([N+](=O)[O-])cc1[N+](=O)[O-])C(N)=O
- Selectivity v. Coll-3 (gelatinase B): 5 unitless
- Selectivity v. Coll-3 (collagenase 1): 660 unitless
- Selectivity v. Coll-3 (stromelysin 1): 10400 unitless
- Selectivity v. Coll-3 (human Gelatinase-A): 16 unitless

B15: Dnp-GPLGFRVC(Me)-NH2 (peptide)
peptide: Dnp-GPLGFRV[C(Me)]-NH2
SMILES: CSC[C@H](NC(=O)[C@@H](NC(=O)[C@H](CCCNC(=N)N)NC(=O)[C@H](Cc1ccccc1)NC(=O)CNC(=O)[C@H](CC(C)C)NC(=O)[C@@H]1CCCN1C(=O)CNc1ccc([N+](=O)[O-])cc1[N+](=O)[O-])C(C)C)C(N)=O
- Selectivity v. Coll-3 (gelatinase B): 20 unitless
- Selectivity v. Coll-3 (collagenase 1): 17300 unitless
- Selectivity v. Coll-3 (stromelysin 1): 3970 unitless
- Selectivity v. Coll-3 (human Gelatinase-A): 15 unitless

B17: Dnp-GPAPFRGC(Me)-NH2 (peptide)
peptide: Dnp-GPAPFRG[C(Me)]-NH2
SMILES: CSC[C@H](NC(=O)CNC(=O)[C@H](CCCNC(=N)N)NC(=O)[C@H](Cc1ccccc1)NC(=O)[C@@H]1CCCN1C(=O)[C@H](C)NC(=O)[C@@H]1CCCN1C(=O)CNc1ccc([N+](=O)[O-])cc1[N+](=O)[O-])C(N)=O
- Selectivity v. Coll-3 (gelatinase B): 14 unitless
- Selectivity v. Coll-3 (collagenase 1): 4420 unitless
- Selectivity v. Coll-3 (stromelysin 1): 488 unitless
- Selectivity v. Coll-3 (human Gelatinase-A): 9 unitless

Next, values leading:

- Selectivity v. Coll-3 (gelatinase B): 7 unitless
- Selectivity v. Coll-3 (collagenase 1): 274 unitless
- Selectivity v. Coll-3 (stromelysin 1): 2990 unitless
- Selectivity v. Coll-3 (human Gelatinase-A): 8 unitless
B1: Dnp-GPSPLHGC(Me)-NH2 (peptide)
peptide: Dnp-GPSPLHG[C(Me)]-NH2
SMILES: CSC[C@H](NC(=O)CNC(=O)[C@H](Cc1c[nH]cn1)NC(=O)[C@H](CC(C)C)NC(=O)[C@@H]1CCCN1C(=O)[C@H](CO)NC(=O)[C@@H]1CCCN1C(=O)CNc1ccc([N+](=O)[O-])cc1[N+](=O)[O-])C(N)=O

- Selectivity v. Coll-3 (gelatinase B): 17 unitless
- Selectivity v. Coll-3 (collagenase 1): 1430 unitless
- Selectivity v. Coll-3 (stromelysin 1): 35700 unitless
- Selectivity v. Coll-3 (human Gelatinase-A): 10 unitless
B2: Dnp-GPSGIHV-NH2 (peptide)
peptide: Dnp-GPSGIHV-NH2
SMILES: CC[C@H](C)[C@H](NC(=O)CNC(=O)[C@H](CO)NC(=O)[C@@H]1CCCN1C(=O)CNc1ccc([N+](=O)[O-])cc1[N+](=O)[O-])C(=O)N[C@@H](Cc1c[nH]cn1)C(=O)N[C@H](C(N)=O)C(C)C

- Selectivity v. Coll-3 (gelatinase B): 8 unitless
- Selectivity v. Coll-3 (collagenase 1): 429 unitless
- Selectivity v. Coll-3 (stromelysin 1): 814 unitless
- Selectivity v. Coll-3 (human Gelatinase-A): 16 unitless
B4: Dnp-GPLPFRGC(Me)-NH2 (peptide)
peptide: Dnp-GPLPFRG[C(Me)]-NH2
SMILES: CSC[C@H](NC(=O)CNC(=O)[C@H](CCCNC(=N)N)NC(=O)[C@H](Cc1ccccc1)NC(=O)[C@@H]1CCCN1C(=O)[C@H](CC(C)C)NC(=O)[C@@H]1CCCN1C(=O)CNc1ccc([N+](=O)[O-])cc1[N+](=O)[O-])C(N)=O

- Selectivity v. Coll-3 (gelatinase B): 21 unitless
- Selectivity v. Coll-3 (collagenase 1): 550 unitless
- Selectivity v. Coll-3 (stromelysin 1): 332 unitless
- Selectivity v. Coll-3 (human Gelatinase-A): 36 unitless
B7: Dnp-GPLPFRVC(Me)-NH2 (peptide)
peptide: Dnp-GPLPFRV[C(Me)]-NH2
SMILES: CSC[C@H](NC(=O)[C@@H](NC(=O)[C@H](CCCNC(=N)N)NC(=O)[C@H](Cc1ccccc1)NC(=O)[C@@H]1CCCN1C(=O)[C@H](CC(C)C)NC(=O)[C@@H]1CCCN1C(=O)CNc1ccc([N+](=O)[O-])cc1[N+](=O)[O-])C(C)C)C(N)=O

- Selectivity v. Coll-3 (gelatinase B): 13 unitless
- Selectivity v. Coll-3 (collagenase 1): 2430 unitless
- Selectivity v. Coll-3 (stromelysin 1): 1390 unitless
- Selectivity v. Coll-3 (human Gelatinase-A): 10 unitless
B8: Dnp-GPSPFRGC(Me)-NH2 (peptide)
peptide: Dnp-GPSPFRG[C(Me)]-NH2
SMILES: CSC[C@H](NC(=O)CNC(=O)[C@H](CCCNC(=N)N)NC(=O)[C@H](Cc1ccccc1)NC(=O)[C@@H]1CCCN1C(=O)[C@H](CO)NC(=O)[C@@H]1CCCN1C(=O)CNc1ccc([N+](=O)[O-])cc1[N+](=O)[O-])C(N)=O

- Selectivity v. Coll-3 (gelatinase B): 10 unitless
- Selectivity v. Coll-3 (collagenase 1): 36 unitless
- Selectivity v. Coll-3 (stromelysin 1): 986 unitless
- Selectivity v. Coll-3 (human Gelatinase-A): 20 unitless
B9: Dnp-GPLPLHGC(Me)-NH2 (peptide)
peptide: Dnp-GPLPLHG[C(Me)]-NH2
SMILES: CSC[C@H](NC(=O)CNC(=O)[C@H](Cc1c[nH]cn1)NC(=O)[C@H](CC(C)C)NC(=O)[C@@H]1CCCN1C(=O)[C@H](CC(C)C)NC(=O)[C@@H]1CCCN1C(=O)CNc1ccc([N+](=O)[O-])cc1[N+](=O)[O-])C(N)=O

- Selectivity v. Coll-3 (gelatinase B): 4 unitless
- Selectivity v. Coll-3 (collagenase 1): 2230 unitless
- Selectivity v. Coll-3 (stromelysin 1): 1050 unitless
- Selectivity v. Coll-3 (human Gelatinase-A): 28 unitless
B11: Dnp-PHPFRG-NH2 (peptide)
peptide: Dnp-PHPFRG-NH2
SMILES: N=C(N)NCCC[C@H](NC(=O)[C@H](Cc1ccccc1)NC(=O)[C@@H]1CCCN1C(=O)[C@H](Cc1c[nH]cn1)NC(=O)[C@@H]1CCCN1c1ccc([N+](=O)[O-])cc1[N+](=O)[O-])C(=O)NCC(N)=O

- Selectivity v. Coll-3 (gelatinase B): 54 unitless
- Selectivity v. Coll-3 (collagenase 1): 1570 unitless
- Selectivity v. Coll-3 (stromelysin 1): 2100 unitless
- Selectivity v. Coll-3 (human Gelatinase-A): 18 unitless
B16: Dnp-GPSPFHVC(Me)-NH2 (peptide)
peptide: Dnp-GPSPFHV[C(Me)]-NH2
SMILES: CSC[C@H](NC(=O)[C@@H](NC(=O)[C@H](Cc1c[nH]cn1)NC(=O)[C@H](Cc1ccccc1)NC(=O)[C@@H]1CCCN1C(=O)[C@H](CO)NC(=O)[C@@H]1CCCN1C(=O)CNc1ccc([N+](=O)[O-])cc1[N+](=O)[O-])C(C)C)C(N)=O
